Results from US20240245613A1, “PEPTIDE LIQUID DROPLETS AND METHODS OF USING THE SAME” (RAMOT AT TEL AVIV UNIVERSITY LTD., priority 2021, published 2024).
Entries after “also recorded” stand apart in the source; their conditions may differ.

Tests used:
Type in all cases: physicochemical
[1] = Encapsulation efficiency of fluorescent payloads in peptide droplets; conditions: 20 mM peptide, 20 mM Tris + 0.2 M NaCl, pH 8
Protocol: 1 mM Stock solutions of the fluorescein and Rhodamine B dye molecules were prepared in 20 mM Tris buffer. A 20 mM peptide coacervated solutions were prepared in 20 mM Tris+0.2 M NaCl at pH 8. A 148.5 μl of peptide solution was mixed with 1.5 μl of dye solution in a 1.5 ml Eppendorf tube and was pipetted. The 15 μl of GFP solution was added to 135 μl of peptide solution and was mixed in a 1.5 ml Eppendorf tube and was pipetted. After 10 minutes the samples were centrifuged at 15,000 rcf for 10 minutes. A volume of 120 μl from the supernatant was collected and vortexed and then the absorbance of 35 μl triplicates was measured in a 384 well black plate by Biotek H1 synergy plate reader (purchased from Lumitron, Israel). For GFP, a 7.5 μl of 20 mM Tris buffer to a 7.5 μl GFP aliquot from the purchased stock solution. The 15 μl of GFP solution was added to 135 μl of peptide solution and was mixed in a 1.5 ml Eppendorf tube and was pipetted. The concentration of GFP at the supernatant was measured via fluorescence. All experiments were performed in triplicate. The concentration of the supernatant solutions determinate by calibration curves. Imaging was made to 30 μl of uncentrifuged samples.
LLPS are widely known for the ability to encapsulate small molecules or proteins. This characteristic is important for drug delivery and to exploits coacervate as microreactors. In order to investigate the encapsulation capacity of the designed peptides two fluorescent dyes were used (fluorescein and rhodamine B) and the protein GFP. The peptides WGR-1, WGR-3, WGR-4 and WGR-5 were chosen for this experiment for their diverse chemical characteristics. The encapsulation efficiency was measured via bulk measurements and images of the droplets with the dyes were taken in a fluorescence confocal microscope.

[2] = Fluorescence recovery after photobleaching (FRAP) of peptide droplets; conditions: for apparent diffusion coefficient, comparison in words: among the four LLPS-promoting peptides; for Apparent diffusion coefficient D: droplets prepared with 0.5% FITC labeled peptide, calculated from recovery time; for mobility and dynamics of the droplets: unit not given
Protocol: FRAP experiments were performed by a Zeiss Zen 900 confocal microscope with ×20/0.8 NA Plan-Apochromat air objective. A circular area with radius of 2.5 μm was bleached with a 488 nm laser 100% intensity at 10 iterations; subsequent recovery of the bleached area was recorded with a 488 nm laser. Photobleaching correction and recovery time were calculated using OriginLab. The final FRAP recovery curve is the average of recovery curves collected from five separate droplets.
A fluorescence […] after photo bleaching (FRAP) used to evaluate the diffusion of the droplets. The droplets were prepared with 0.5% of FITC labeled peptide and were observed by confocal microscope. The apparent diffusion coefficients were calculated as followed: […]

[3] = Phase diagrams / liquid-liquid phase separation (turbidity at 500 nm, optical and confocal microscopy); conditions: 0.2 M NaCl; for liquid-liquid phase separation (LLPS) / droplet formation, in words: as a function of peptide concentration and pH; for peptide concentration at which phase separation is observed: pH increased until turbidity appeared
Protocol: 150 μl of 5, 10, 20 and 30 mM peptide solutions were prepared in 20 mM of the suitable buffer (citrate buffer for a pH range of 3-6, tris buffer for pH range of 7-9 and ammonium bicarbonate to a pH range of 9-12) with 0.2 M NaCl. The pH was increased gradually until a turbidity appeared and measured as described below. The turbidity of 35 μl was measured in triplicates at λ=500 nm. This process repeated at higher pH, the pH increased until the turbidity faded, and a sediment appeared. All experiments were performed in triplicates and the presented value is the average.
150 μl of 20 μM peptide solutions were prepared in 20 mM Tris buffer. The pH was adjusted to the desired value of 6, 7, 8, 9, 10 and 11. The turbidity of 35 μl was measured in triplicates at λ=500 nm.
All samples were imaged in a 96 Well Black Glass bottom plate, glass 1.5H (made by Hangzhou Xinyou, and purchased from Danyel Biotech) 10 minutes after preparation. The images were taken by Zeiss Zen 900 confocal microscope with ×20/0.8 NA Plan-Apochromat air objective. The light microscopy images were taken at PMT mode. PMT imaging were taken with 561 nm laser and fluorescence imaging were taken with 488, 561 and 405 nm lasers for fluorescein, rhodamine B and GFP, respectively.
A phase diagram was created by increasing the pH at various peptide concentrations until a visible turbidity occurred. The turbidity was measured as the absorbance at λ=500 nm. To confirm that the turbidity occurred as a result of coacervation rather than precipitation, we performed an optical microscopy analysis of 20 mM peptide solution at pH 8.

Sequence | encapsulation efficiency of GFP, in words [1] | encapsulation efficiency of fluorescein, in words [1] | apparent diffusion coefficient, comparison in words ([2]; FRAP) | apparent diffusion coefficient (D), fold larger than that of WGR-5 ([2]; FRAP, compared with WGR-5) | Apparent diffusion coefficient D ([2]; FRAP) [m^2 sec^−1] | liquid-liquid phase separation (LLPS) / droplet formation, in words [3] | mobility and dynamics of the droplets [2] | peptide concentration at which phase separation is observed [3] [mM]
WGRGRGRGWPGVGF [WGR-3] | lowest encapsulation efficiency | lowest encapsulation efficiency | largest apparent diffusion coefficient | more than 5 fold | 5.52E−14 | created LLPS at higher pH value comparing to WGR-1 | – | –
WGRGRGRGWY [WGR-4] | highest encapsulation efficiency | no significant difference | lower diffusion coefficient than WGR-1 | – | 2.36E−14 | exhibit phase separation at more moderate conditions | 2.36E-14 | 5
WGRGRGWPGVGY [WGR-5] | compromised encapsulation efficiency | – | lowest diffusion | – | 9.27E−15 | perform a phase separation at similar conditions to WGR-4 | – | 5
WGKGKGKGWPGVGY | – | – | – | – | – | showed no visual turbidity; also recorded: LLPS was not observed | – | –
WGRGRGRGWPGVGY [WGR-1] | – | no significant difference | – | – | 4.518E−14 | – | 4.52E-14 | –
WGRGRGRGWPGVG (WGRGRGRGWPGVGF) [WGR-2] | – | – | – | – | – | arrested phase separation; also recorded: LLPS was not observed | – | –
